This series deals with the molecule itself. As to the kind of experiment: native MS.

Data on one protein can be found in publication PMC12225977 (PLOS Computational Biology, 2025).

B1: Francisella tularensis dihydrolipoyl dehydrogenase (IPD) (enzyme)
chain: MSDIKTQVVVLGSGPGGYSAAFRAADLGLEVVLVERYAEIGGVCLNVGCIPSKAMLHIAKVINEARHLESLGIIEMGGLKINRENLLKYKDGVIGKLTGGLKGMAQMRKVKIVQGYGKFTSDKELAVEAADGKVTKIAFDNCIIAAGSSVIKLPFVPEDDRIIDSTGALEMKEIPETMLVVGGGIIGLEMAQVYSELGTKITVVEFADQLMNGVDKDLVKAYQKVNSRYDVRLKTAVTAMEAKEDGIYVTMEGDHPAKDERFDRVLMAIGRKPNGKLIDAEKAGVKVDERGFIPVDKQLRTNVPHIFAIGDIVGQPMLAHKAVPEGRTAAEVISGLNHSFDPLVIPSVAYTDPEVAWVGETETSAKAKGIKYEKGVFPWAASGRSLSIDRSEGMTKILFDENHKIIGASIVGTHAGELISEAAIAIEMGCDAEDIALTVHPHPTLSESLMMATEVYEGTATDLPPQKKKK
notes: also called Francisella IPD; MGH6-IPD
As a reminder, the stoichiometry N is a count of units in the complex or per binding partner. As to B1, the “stoichiometry N” value stood at 2.
